From publication PMC4316159 come the findings set out here.

Assay [1] has as its target biotinylated maltose-binding protein (MBP) [MBP: P0AEX9]. Briefly: SPR. Background: Surface plasmon resonance follows binding to a sensor surface in real time, without labels.
In assay [2] the target is CD44 trans-membrane domain (TMD) fused to maltose-binding protein [MBP: P0AEX9]. In words: single-molecule force spectroscopy.

A word on the Kd: it is the constant that tells how readily two partners part at equilibrium. As a reminder, the koff is a measure of how fast the partners let go of each other. The low end stands for a long-lived complex, the high end for a short-lived complex. By kon is commonly meant the rate constant with which the complex forms. The low end stands for slower complex formation, the high end for faster complex formation. Turning to monobody YS1(E47A) (designed binder), in assay [1], the Kd came to 101 nM, the koff is 0.0387 s⁻¹ and the on-rate (kon) was 360000 M⁻¹ s⁻¹. In assay [2], this substance came in with a decrease of rupture force against YS1 of 10 to 15 pN and an unstressed off-rate k0off (Bell model) of 0.00076 s⁻¹.
